The values below come from patent US20050266528A1.

The test deals with von Willebrand factor (vWF) (UniProt P04275). The experiment in a line: affinity chromatography, peptide immobilised, linear 0-2 mol/l NaCl gradient, vWF antigen ELISA of fractions. In general terms: ELISA stands for enzyme-linked immunosorbent assay.
Sequence of UniProt P04275 (P04275 764-2813): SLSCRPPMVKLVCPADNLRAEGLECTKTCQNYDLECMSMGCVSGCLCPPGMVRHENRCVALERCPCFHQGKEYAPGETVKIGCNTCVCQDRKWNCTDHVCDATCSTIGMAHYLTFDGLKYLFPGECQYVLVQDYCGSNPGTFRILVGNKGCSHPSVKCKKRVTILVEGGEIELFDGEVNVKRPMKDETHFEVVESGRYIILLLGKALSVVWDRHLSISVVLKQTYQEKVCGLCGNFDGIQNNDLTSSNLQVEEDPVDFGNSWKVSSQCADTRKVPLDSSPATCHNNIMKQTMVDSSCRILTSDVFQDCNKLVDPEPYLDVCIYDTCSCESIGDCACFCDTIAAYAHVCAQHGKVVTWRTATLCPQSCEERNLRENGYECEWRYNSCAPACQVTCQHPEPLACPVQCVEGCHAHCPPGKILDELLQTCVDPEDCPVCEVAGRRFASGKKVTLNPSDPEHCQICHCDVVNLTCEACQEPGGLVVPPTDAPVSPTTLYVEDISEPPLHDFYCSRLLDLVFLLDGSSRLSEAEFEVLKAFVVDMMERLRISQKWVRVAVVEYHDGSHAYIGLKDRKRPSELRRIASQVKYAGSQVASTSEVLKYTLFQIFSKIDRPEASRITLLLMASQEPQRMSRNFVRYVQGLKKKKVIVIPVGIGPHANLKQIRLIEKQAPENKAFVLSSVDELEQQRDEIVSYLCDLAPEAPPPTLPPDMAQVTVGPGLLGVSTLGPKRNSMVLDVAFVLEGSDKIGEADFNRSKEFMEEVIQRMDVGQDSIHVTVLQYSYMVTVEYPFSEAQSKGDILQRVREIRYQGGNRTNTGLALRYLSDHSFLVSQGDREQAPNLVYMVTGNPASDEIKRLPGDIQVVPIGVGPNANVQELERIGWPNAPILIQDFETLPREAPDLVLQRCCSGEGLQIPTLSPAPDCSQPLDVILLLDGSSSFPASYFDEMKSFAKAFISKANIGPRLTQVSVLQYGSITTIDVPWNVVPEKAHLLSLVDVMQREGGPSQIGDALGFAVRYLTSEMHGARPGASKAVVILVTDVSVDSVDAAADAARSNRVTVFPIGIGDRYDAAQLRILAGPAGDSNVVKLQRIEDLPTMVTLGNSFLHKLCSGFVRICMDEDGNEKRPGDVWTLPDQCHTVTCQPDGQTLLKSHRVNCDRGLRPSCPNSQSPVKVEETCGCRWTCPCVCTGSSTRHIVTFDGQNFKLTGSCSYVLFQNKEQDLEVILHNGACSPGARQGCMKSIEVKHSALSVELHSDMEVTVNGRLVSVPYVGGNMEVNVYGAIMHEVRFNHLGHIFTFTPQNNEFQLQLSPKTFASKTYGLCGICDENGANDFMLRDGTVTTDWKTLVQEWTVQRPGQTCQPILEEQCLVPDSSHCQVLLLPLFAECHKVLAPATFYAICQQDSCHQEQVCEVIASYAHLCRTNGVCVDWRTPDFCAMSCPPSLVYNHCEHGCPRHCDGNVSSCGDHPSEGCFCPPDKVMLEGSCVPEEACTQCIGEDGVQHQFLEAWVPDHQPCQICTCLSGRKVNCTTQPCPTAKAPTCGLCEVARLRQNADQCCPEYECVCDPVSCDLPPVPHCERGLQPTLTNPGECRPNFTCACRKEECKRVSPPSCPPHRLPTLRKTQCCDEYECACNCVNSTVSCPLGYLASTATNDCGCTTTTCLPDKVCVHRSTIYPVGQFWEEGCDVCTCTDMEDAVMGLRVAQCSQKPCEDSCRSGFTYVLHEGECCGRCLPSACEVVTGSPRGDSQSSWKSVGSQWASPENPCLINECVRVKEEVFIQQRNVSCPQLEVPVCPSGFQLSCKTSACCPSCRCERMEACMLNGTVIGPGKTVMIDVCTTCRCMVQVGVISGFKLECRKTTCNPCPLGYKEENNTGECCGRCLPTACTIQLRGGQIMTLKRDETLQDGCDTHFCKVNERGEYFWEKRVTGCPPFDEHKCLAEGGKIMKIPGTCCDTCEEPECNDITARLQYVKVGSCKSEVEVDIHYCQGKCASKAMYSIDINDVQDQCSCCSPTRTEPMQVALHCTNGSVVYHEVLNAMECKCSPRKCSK

The molecule AAGGILHLELLV [peptide with the sequence …] returned a NaCl concentration at which vWF elutes from the peptide of 100 mmol/L.
